± gives the uncertainty stated by the source.
Experiment: amyloid nucleation score (Sup35N fusion, yeast selection) (log enrichment); library NNK2; higher = more nucleation; inactive = no reads after selection
Procedure, shortened: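 Libraries of peptides of 20 random codons fused to Sup35N were expressed in psi-negative yeast and induced 24 hours with 100 μM copper sulfate. Selection was 7 days at 30°C on medium lacking adenine and uracil, and plasmid inserts were Illumina-sequenced before and after selection. Nucleation score is the DiMSum log enrichment of output over input reads, centred on the mode score of non-aggregating sequences, and sequences with under 100 input reads were left out.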

Substance | amyloid nucleation score
RRLSNRRWLIFCQWSFHYGV | 0.242 ± 0.61
RRQRWKRLTNF | inactive
RRSSD | 1.2 ± 0.3
RRTICCCSIVCGRGNGSLDL | 6.257 ± 0.056
RRVMRLWMALPCNDMIGCIQ | -0.476 ± 0.37
RRVVWSWNCLLSDMPRSHVL | 1.51 ± 0.13
RRVYCNIIVSGVCVSGE | 1.42 ± 0.12
RRWDHRIHGILSISDIIFLR | inactive
RRYYNAQHVVVYELEVESLS | 0.453 ± 0.66
RSCMASEYGT | -0.971 ± 0.64
RSCSWLLIYRIVILVG | inactive
RSDCCRDQYT | -0.311 ± 1.1
RSDVTLDNIQMWA | -1.38 ± 0.64
RSFGYIMLWVMIFNRIKLIF | inactive
RSFHVEYILM | 3.23 ± 0.068
RSHGSQGMKSR | 1.12 ± 0.34
RSHLSTLEMSTSIGKGNPNY | 0.685 ± 0.56
RSIISFPLFLFSIQLIPPWA | -0.792 ± 0.6
RSLDEPSFFIPMPMYWVLGV | 0.271 ± 0.65
RSLDVLTTVVMRAFNPTRLR | 0.953 ± 0.36
RSLVLYSGRKVLS | -0.516 ± 0.27
RSMFDWYKCILHDLISLQSR | 0.769 ± 0.47
RSNDCDDLMDHVLWGYETYR | 1.08 ± 0.66
RSNNTIFGKLFSGAILLCWV | -1.2 ± 1
RSRRRHRLDVGSWRWCCGES | 4.08 ± 0.052
RSSSSTMDMM | 0.85 ± 0.74

Substance | amyloid nucleation score
RSTERCNYTCVNWVVL | 7.748 ± 0.048
RSWIFVSLIDCMEWILMNGS | -0.451 ± 1
RTDMALALQ | 0.973 ± 0.34
RTFAKVLKSSYQRNLPSTDV | 0.267 ± 0.24
RTGGNILQYFYIVRAHSGWC | 1.35 ± 0.16
RTHTKLGT | 0.462 ± 0.42
RTLHSLWHNAT | 0.906 ± 0.35
RTMFNLHADCERNLFWFGGW | 5.13 ± 0.065
RTNYWVIAWIYAFGS | -0.716 ± 1.1
RTPTRILQAMLFYSRDHYSI | 0.218 ± 0.8
RTSTYLCMAVNKGVFVSNSV | -0.576 ± 0.64
RTVTNEGTCFNGWLCYAREG | 10.15 ± 0.063
RTYWGRKLNCVQF | 6.716 ± 0.04
RVCPLLYYGRDLLQLTMSSM | 0.314 ± 0.53
RVDTYYQNL | 5.21 ± 0.059
RVGQGSEACFRSWSIAGPPY | 2.8 ± 0.14
RVGVIFRKYWSFRYFSCKEN | -0.59 ± 1.1
RVHSCCTGKIGYKGVIVISV | 0.051 ± 0.43
RVIARLLMLWFHPPCSSTKR | 6.203 ± 0.058
RVKYILMVQSLIFWNHILNV | inactive
RVLGWCSNSWMVEMSNECSW | 1.13 ± 0.3
RVLMHHYTLANLVSLVTNFF | 5.867 ± 0.043
RVMGCVMGIRGWRIRIGNSG | 1.42 ± 0.47
RVMRCGCIDVQAILNVIVSQ | 9.316 ± 0.039
RVMRLGTLEDNWGDHGLSSR | -0.583 ± 0.44
RVNPCMTEGSLGLICSPYWY | -0.511 ± 0.22

Substance | amyloid nucleation score
RVRIYMTWFFTPIIWERWDG | inactive
RVRWYSCLVFMISTGFAFL | -0.702 ± 0.76
RVSTEVFCSLLVGTHLGRGP | 4.24 ± 0.13
RVWSY | inactive
RVYEVFGQKATGQMARRSVG | 1.78 ± 0.34
RVYIFTCYGSSV | 7.997 ± 0.074
RWAFTSFGSCLDKCYKYDYC | -0.913 ± 0.49
RWCSVGNLVRSITR | 0.464 ± 0.57
RWEMLPVKSHNNLRIRK | -0.293 ± 0.31
RWICWAMCSYLRRRKKP | 0.527 ± 0.65
RWLDSERRTTRHLCSRGYST | 1.24 ± 0.38
RWLVRTEKSS | 2.03 ± 0.1
RWMRTSAGGCGSKVVWNLLG | 0.682 ± 0.24
RWSYLYSKEVH | -1.28 ± 0.64
RWVRA | 1.18 ± 0.21
RYCLTVSKGLRSG | -0.722 ± 0.49
RYCVDNW | 0.122 ± 0.41
RYFINFSSLCHQLDILWRCV | -1.03 ± 0.76
RYMGVMVYKAPPRRTWCGKV | -0.237 ± 0.41
RYNILSSSATV | inactive
RYNLKQCL | inactive
RYPFFEMVRSTMQSMIENQ | 0.612 ± 0.3
RYRALPTMPLEMSVQGDLRV | -0.319 ± 0.25
RYRSFICALLRGFTDLACL | -1.53 ± 1.1
RYRWDLSPRNTTTN | 3.22 ± 0.072
RYSFD | -0.588 ± 1.1

Substance | amyloid nucleation score
RYWKFA | 0.744 ± 0.74
SAACQCLDFWCSGLGQSQGL | 6.59 ± 0.075
SACDGPGTQSRIVGWGHSCV | 1.33 ± 0.27
SAFDKASERLCSESVYKGKN | 1.7 ± 0.099
SAFSFAIVIYFRLCKVGLVD | -0.92 ± 1.1
SAGGVSPFP | -0.659 ± 0.63
SAKNMFDMYNCLDTLVVSWD | -0.095 ± 0.46
SAKSNGVQ | 1.16 ± 0.32
SALRSSEEFSAFCVE | -0.084 ± 0.74
SALRVSEGMLSSGEIAHLVY | -0.052 ± 0.23
SANSRVGGLGNL | 0.717 ± 0.39
SARRGCYWEAYCATCLKGWM | -1.03 ± 0.76
SARRRINGNPCEEMNQRLAV | 1.08 ± 0.53
SASFRGG | -0.935 ± 0.48
SAVIFAESTCV | -0.512 ± 0.79
SAVSMMLYWGSLNRVDYCWS | 0.877 ± 0.32
SAVSPVSVADR | -0.656 ± 1.1
SAYGVVSSWMR | -0.266 ± 0.55
SCDLYDTKSESFWLPSNMGS | 0.73 ± 0.44
SCDVMIRYLSLGTLSYVRAV | -0.032 ± 1.1
SCIYRE | -0.097 ± 0.21
SCLLYCYSNSWFFIFNQR | -0.979 ± 1
SCMCMEICINWNFRCIDGRG | 6.66 ± 0.078
SCNNLGDLWLSIILVKSET | 0.044 ± 1.1
SCQLQDKLMLS | 0.999 ± 0.16
SCRIFFE | -0.062 ± 0.65

Substance | amyloid nucleation score
SCRVLIGV | 0.878 ± 0.46
SCSRLVFRRVVSGIISLCME | -0.901 ± 0.79
SCSSLYT | 1.11 ± 0.43
SCSVTSAFRWTRCGLLRGIW | -0.048 ± 0.3
SCSYRFSRSDDNCKTRFIAF | -0.582 ± 1.1
SCVMGYKEVAFL | -0.081 ± 0.34
SDFIAGVKLSRNFDGRG | -0.097 ± 1.1
SDFMTKYHHL | 3.33 ± 0.058
SDFVEKLLWFSY | 0.039 ± 0.77
SDGSGNGEWSEMQVLWTRSN | 1.07 ± 0.33
SDIFRK | -1.27 ± 0.62
SDLANTLEPELQAFVIQ | -0.029 ± 0.61
SDNRENFSRTFCFSVVGNWK | inactive
SDNSM | -0.235 ± 0.32
SDRGYSE | 3.2 ± 0.14
SECCLVELINLTDGGMRGSA | 0.5 ± 0.42
SECENAFVGVPPWRTKILWS | 2.19 ± 0.12
SEFGSNEYRDGLGVYYGST | -0.542 ± 0.33
SEFRHGSYYSGVTEVRFWVQ | 2.26 ± 0.11
SEKGKEYSSVDMGQNGNTNM | -0.829 ± 0.63
SELLGLSIKAIYICCMSQME | -0.9 ± 0.61
SESWSSCIMA | 1.33 ± 0.39
SESYVLYNIFGFSVKLDEHG | -1 ± 1
SETLFEYS | -1.55 ± 0.55
SFASRYFSNKGGLHSDMCAS | inactive

— the supplement of paper PMC12042874
